Assay results published in the Immune Epitope Database (IEDB).

The sequences below were run against HLA-A*02:01 (assay: IEDB peptide-MHC binding, purified MHC/competitive/radioactivity; ≥ and ≤ were set here for values at or beyond the usual limits of such assays). Conditions: source organism: Human alphaherpesvirus 1.

Row | Sequence | IC50
1 | RLPLYEALV | 95 nM
2 | RLPPHTQPV | 31 nM
3 | RLPRYLACL | 76 nM
4 | RLQEALAVV | 6.6 nM
5 | RLQFGPPPV | 11 nM
6 | RLQHLVAEI | 142 nM
7 | RLQTYLTDI | 827 nM
8 | RLSPFPALV | 60 nM
9 | RLTEDDFGL | 77 nM
10 | RLTGVTSLV | 13 nM
11 | RLTGYPAGI | 1100 nM
12 | RLVDGVGGI | 217 nM
13 | RLVVVGWFL | 865 nM
14 | RLYRWQPDL | 916 nM
15 | RMFGMPTAL | 5.5 nM
16 | RMGELTAEI | 91 nM
17 | RMLGDVMAV | 1.7 nM
18 | RMWAWIHGL | 61 nM
19 | RTAWWVWCV | 26 nM
20 | RVYNIIQLV | 19700 nM
21 | SEEEGNFYV | 19200 nM
22 | SLDAKQWSV | 7.5 nM

Row | Sequence | IC50
23 | SLFDCIVPV | 0.17 nM
24 | SLLALNEAL | 54 nM
25 | SLLDSLLVM | 76 nM
26 | SLLLVVEGV | 8.8 nM
27 | SLLSLEHTL | 55 nM
28 | SLLWLGAGV | 54 nM
29 | SLMNVDAAV | 9.7 nM
30 | SLNARGLLV | 145 nM
31 | SLQQELAHM | 71 nM
32 | SLRNVLAAV | 5.4 nM
33 | SLSTYTVPI | 13 nM
34 | SLYDVEFDA | 9.7 nM
35 | SMDDDTYVA | 546 nM
36 | SMFASCNLL | 29 nM
37 | SPGGFVQFV | 450 nM
38 | SQLAHLVYV | 62 nM
39 | SQTQPPAPV | 781 nM
40 | SVYALGFGV | 1300 nM
41 | TIHCFFFAV | 108 nM
42 | TISKPSEAV | 4780 nM
43 | TLIPRLFAL | 35 nM
44 | TLLDFAHGL | 10 nM

Row | Sequence | IC50
45 | TLLDQNNAL | 39 nM
46 | TLLELVVSV | 1.8 nM
47 | TLLRLACEV | 65 nM
48 | TLRDTIPDC | 1390 nM
49 | TLRGLFFSV | 94 nM
50 | TLSGMGYYL | 148 nM
51 | TMLEDHEFV | 118 nM
52 | TMRDDLPLV | 61 nM
53 | VIACLLVAV | 205 nM
54 | VILPACAFV | 6.2 nM
55 | VLAAGVLVV | 234 nM
56 | VLAAVLLGA | 52 nM
57 | VLADAINGL | 86 nM
58 | VLADDVYPL | 2.4 nM
59 | VLANFCSAL | 14 nM
60 | VLCGIAWYV | 7.9 nM
61 | VLDCVVTGA | 973 nM
62 | VLDEVMSTL | 45 nM
63 | VLFSGPSPL | 7.9 nM
64 | VLGAAIWWV | 73 nM
65 | VLGAAVYAL | 100 nM
66 | VLGCDAALV | 521 nM

Row | Sequence | IC50
67 | VLLEKAPPL | 24 nM
68 | VLLGAPVVV | 14 nM
69 | VLMDGHTGM | 136 nM
70 | VLNTLMFMV | 14 nM
71 | VLPATFAAV | 11 nM
72 | VLTEPLCQV | 71 nM
73 | VLVVQPAPV | 112 nM
74 | VLWSLLWLG | 1.4 nM
75 | VMAARPMVV | 266 nM
76 | VMAAVCLQI | 15 nM
77 | VTFDTLFMV | 8.7 nM
78 | VTTDSVRAL | 5350 nM
79 | VVTAIVYVV | 265 nM
80 | WLETELVFV | 85 nM
81 | WLLQITVLL | 130 nM
82 | YFHALVYFV | 133 nM
83 | YIFSYDAYT | 310 nM
84 | YILNKPVFI | 52 nM
85 | YLACELLPA | 4.7 nM
86 | YLACLAAVI | 61 nM
87 | YLALLEACL | 7.5 nM
88 | YLANGGFLI | 0.56 nM

Row | Sequence | IC50
89 | YLARAAGLV | 210 nM
90 | YLATGALLA | 55 nM
91 | YLCDNFCPA | 27 nM
92 | YLCPVLVFV | 9.5 nM
93 | YLCSLAVVL | 17 nM
94 | YLDEAGGHL | 23 nM
95 | YLGAFLSVL | 16 nM
96 | YLLEQLNNL | 5.7 nM
97 | YLLGRPPNA | 12 nM
98 | YLLNYAGRI | 194 nM
99 | YLREYVTRL | 115 nM
100 | YLSEEMMEL | 6.3 nM
101 | YLSRTQRLA | 110 nM
102 | YMAKLHAYL | 11 nM
103 | YTFWRLDLV | 30 nM
104 | YVLHFACLV | 7.6 nM
105 | YVLNSQIAV | 121 nM
106 | YVPPDMRGV | 511 nM
